{"source": "the DeepSol protein solubility set"}
{"assay": "soluble on expression in E. coli; label from the status in PepcDB or PDB records"}
{"sequence": "MSLDIEQQFLNDLDNQLWRAADKLRSNLDAANYKHVVLGLIFLKYVSDAFEERQQELTELFQKDDDDNIYYLPREDYDSDEAYQQAIAEELEIGDYYTEKNVFWVPKTARWNKLRDVITLPTGSVIWQDEQGEDVKLRSVSWLIDNAFDDIEKANPKLKGILNRISQYQLDADKLIGLINEFSLTSFNNPEYNGEKLNLKSKDILGHVYEYFLGQFALAEGKQGGQYYTPKSIVTLIVEMLEPYKGRVYDPAMGSGGFFVSSDKFIEKHANVKHYNASEQKKQISVYGQESNPTTWKLAAMNMVIRGIDFNFGKKNADSFLDDQHPDLRADFVMTNPPFNMKDWWHEKLADDPRWTINTNGEKRILTPPTGNANFAWMLHMLYHLAPTGSMALLLANGSMSSNTNNEGEIRKTLVEQDLVECMVALPGQLFTNTQIPACIWFLTKDKNAKNGKRDRRGQVLFIDARKLGYMKDRVLRDFKDEDIQKLADTFHNWQQEWSEENNQAGFCFSADLALIRKNDFVLTPGRYVGAEAEEDEGHHHHHH", "soluble on expression in E. coli": "soluble"}
{"sequence": "MSLDKEYRITLLHNVAHYGHAEATRILLAAGARVNAVNGEGNTPLFAAVHEGHDDVARILLDAGADVTIANSYWYTPLREACRRGNTGMVRLLLEKGADVNITDNKGFTPLHAAVSAEALEAATLILDSGADINIAGRYGDTPLHYAVGLGYEEFVRLFLARGADPTIRNDRGLTPRQLAEERGFASIVELFRNWGKNTEGHHHHHH", "soluble on expression in E. coli": "soluble"}
{"sequence": "MSLDKFQLKGKVALVTGCKRGIGKAMAIGLAEAGADIIGVSASLELEGSSVEQAIRATGRNFKAYQCDFSDRKSLYNFINSVKADYSRIDILVNNAGTILRTPAAEHPDEMWDKVIEVNQNAQFILTRELGKEMVSRGEGKVIFTASLLTFQGGITVPGYAASKGAIGQMTMAFANEWASKGVNVNAIAPGYISTDNTEALRNDPDRSASILSRIPAGRWGEAEDFAGPVVFLASEAAAYMHGSIMLVDGGWMGREGHHHHHH", "soluble on expression in E. coli": "soluble"}
{"sequence": "MSLDLAADILVADAHMHTNPTRGLGAREVARRFRREGGWFAALLTLTTWSYGLAPTGVEAYRRMYEIHLRECRAAREEGLRVACFAGIHPAEVDRMIDKHRQPPEKALETALEAVEVLRRLCREGAIDGVGEVGRQHYRTSPLRVAIAEVVLEEAAAAALEEGCLLQLHLENEGPATVETVDRILRRAGATGARRGMVIFHHATLRVAKEAVARGYNATIPGVPKLLEHAAANEPPDYMVESDYLDDPARPGAVVEPWKMAQKLREIASRTPETREWVRRTNIDLVERVFQASPPEGHHHHHH", "soluble on expression in E. coli": "soluble"}
{"sequence": "MSLDNFLTTGFLDIIPLSQPLEFRREGLQHGVLDKLRSGKYPQQASLNLLRQPVEECRKMMFSFIQQAMADGLRNVLIIHGKGREDKSHANIVRSYVARWLTEFDDVQAYCTALPHHGGSGACYVALRKTAQAKQENWERHAKRSREGHHHHHH", "soluble on expression in E. coli": "not soluble"}
{"sequence": "MSLDPRKVNELRAFVKMCKQDPSVLHTEEMRFLREWVESMGGKVPPATQKAKSEENTKEEKPDSKKVEEDLKADEPSSEESDLEIDKEGVIEPDTDAPQEMGDENAEITEEMMDQANDKKVAAIEALNDGELQKAIDLFTDAIKLNPRLAILYAKRASVFVKLQKPNAAIRDCDRAIEINPDSAQPYKWRGKAHRLLGHWEEAAHDLALACKLDYDEDASAMLKEVQPRAQKIAEHRRKYERKREEREIKERIERVKKAREEHERAQREEEARRQSGAQYGSFPGGFPGGMPGNFPGGMPGMGGGMPGMAGMPGLNEILSDPEVLAAMQDPEVMVAFQDVAQNPANMSKYQSNPKVMNLISKLSAKFGGQAEGHHHHHH", "soluble on expression in E. coli": "soluble"}
{"sequence": "MSLDRLKQSLLDAPIIEKDGYHYFVHPISDGVPMLEPELLREIVIRIIRKAELDEVDKIVTPAAMGIHISTAVSLMTDIPIVVIRKREYGLPGEVALSQETGYSENEMYINDVHEGDRVLVLDDVLSTGGTLRAITDALEQTGADVADVLAVIKKAGPNELDDTDMDVRTLINVDEGHHHHHH", "soluble on expression in E. coli": "soluble"}
{"sequence": "MSLDSGTLGTPPPEQGPTPPTTLPDVPAPVIPSASVTSAASDFLAALHPPVTVPDPAPPPPPAPAAGNPPDTVTGDSVLQRILRGPTGPGTTSLAPAVRYGRQPGPEAPASAPPAAGRAVPGLYHHPVPEPDPVRVEEVSRRIKRWAEDEVQLYPEEWEGQFDGFSVGRYMVGCHPDAPTVDHLMLATRLMVAENAVDDCYCEDHGGSPVGLGGRLLLAHTAIDHFHSTAEYTPTWQASLAADAPRRAYDSAMGYFVRAATPSQSDRYRHDMARLHLGYLAEGAWAQTGHVPEVWEYLAMRQFNNFRPCPTITDTVGGYELPADLHARPDMQRVIALAGNATTIVNDLYSYTKELNSPGRHLNLPVVIAEREQLCERDAYLKAVEVHNELQHSFEAAAADLAEACPLPPVLRFLRGVAAWVDGNHDWHRTNTYRYSLPDFWEGHHHHHH", "soluble on expression in E. coli": "soluble"}
{"sequence": "MSLDVGGSERIPSEMRAWEVTSPAPIDSSPSPIHFVKHPVPVPKTSEVLVRVISCGICHTDLHVAEGDLPVHHPHVIPGHEIIGRVVANGPQAGRFNLGDRIGVPWLRWTCGVCTYCRSGKENLCPNSLYTGWDHDGGYAEYVTVPEGFAYRIPSAFNSVTAAPLLCAGIIGYHAFRRANVPAGGRLGLYGFGGSAHLAAQIAIAQGIEVHVFTRGKDAQRFALELGAASAQGVYDPSPVSLDSSILFAPVGDIVPKALENLAAGGTLALAGIHLTDVPSLNYQNHLFHEKVLTSVESNTRRDGEEFLTLADRLKIHPKTTEYPFEKADEALRHLSHGDMQGACVLRISEGHHHHHH", "soluble on expression in E. coli": "not soluble"}
{"sequence": "MSLDWDSVHVPGPHAMTIQELVDYVNARQKQGIYEEYEDIRRENPVGTFHCSMSPGNLEKNRYGDVPCLDQTRVKLTKRSGHTQTDYINASFMDGYKQKNAYIGTQGPLENTYRDFWLMVWEQKVLVIVMTTRFEEGGRRKCGQYWPLEKDSRIRFGFLTVTNLGVENMNHYKKTTLEIHNTEERQKRQVTHFQFLSWPDYGVPSSAASLIDFLRVVRNQQSLAVSNMGARSKGQCPEPPIVVHCSAGIGRTGTFCSLDICLAQLEELGTLNVFQTVSRMRTQRAFSIQTPEQYYFCYKAILEFAEKEGMVSSGQNLLAVESQEGHHHHHH", "soluble on expression in E. coli": "soluble"}
{"sequence": "MSLEALFNPKSIAVIGASSKPGKIGYAIMKNLIEYGYEGKIYPVNIKGGEMEISGRKFKVYKSILEVPDEVDMAVIVVPAKSVPEVVEECGKKGVKVAPIISSGFGELGEEGKKVEQQLVETARKYGMRILGPNIFGVVYTPAKLNATFGPTDVLPGPLALISQSGALGIALMGWTILEKIGLSAVVSVGNKADIDDADLLEFFKDDENTKAILIYMEGVKDGRRFMEVAKEVSKKKPIIVIKAGRSERGAKAAASHTGSLAGSDTIYSAAFKQTGVLRALTIGEAFDWARALSNLPEPQGENVVIITNGGGIGVMATDAAEEEGLHLYDDLEQLKIFANHMPPFGSYKNPVDLTGMADAKSYEGAIRDALAHPDMHSIIVLYCQTAVLDPRELADVIIREYNESGRKKPLVVAIVGGIEAKQAIDVLNENGIPAYPEPERAVKALSALYKWSKWKAKHK", "soluble on expression in E. coli": "soluble"}
{"sequence": "MSLEDQALFGYARYGKVDDVVYPSVIASGNGINYGDSDIEILGDRIPRQILYPAKIKQEILETDKLVIIPNGAELVRKPKDLVRIIMDIHSRYGFSKLIMISGISDPYSIPALVYLGISFFDSSILEMEGKMGYRFTPFGIEKADHDVSSENAIFISDMMHIIQRSISDGTLRELIEKAVISSKAAEMVRIADYSYYQDFESVFPVRTPYIKANTIEDLYRPDLIRYRNYISESYVKPDADIALILPCSAKKPYSRSKSHQKVIGALGNLRRFIHEVIVTSPIGIVPRDLEETYPARFYDIPVIGLWYEDEKIMMKRMMSSYMGRNRYRKVIAFIPEDLDFITEAIPYPHEVIEFKSSNLQRLREVIQREIAGGKAVNQKVAKYNSILRYQFGEWILPLVSGYTIRRNYNQDMIVKDGKILFVYNENLGKFTINKASADMFIKNGKFLVEIDDFKPTSNVYAMGVVDATEDIRQEDEVVLVHSGEVRGVGIAKMPARAMIELKKGIAVKVREGHHHHHH", "soluble on expression in E. coli": "soluble"}
{"sequence": "MSLEGKTIGITAIGTDHDWDLKAYQAQIAEIERLGGTAIALDAGRNDQTQVSQIQTLIAQKPDAIIEQLGNLDVLNPWLQKINDAGIPLFTVDTATPHAINNTTSNNYSIGAELALQMVADLGGKGNVLVFNGFYSVPVCKIRYDQMKYVLEAFPDVKIIEPELRDVIPNTIQSAYSNVTDMLTKYPNEGDVGAIWACWDVPMIGATQALQAAGRTDIRTYGVDGSPEFVEMVADPESPAGAVAAQQPSEIGKLAVQNVARHLAGQEVKPFTFAPAVLITKENAAETAADFLPKEGHHHHHH", "soluble on expression in E. coli": "soluble"}
{"sequence": "MSLEHLHELVGSVDVVLSDIWGVVHNGLESFPDACAALKTARDQGRTVVLITNAPRPADSVQRQLRKLDVPDDCYDAIVSSGDLTRIYVAEHPGQSIYWLGPDRDNSIYRGLDAVLTPLEKADYIICTGPFDDETESAEDYREMMGQALERKLTLVCANPDIVVERGDRLIYCAGAIAELYRELGGDVIFYGKPHRPIYDRAMALAREIRGVDTPVQRVLAIGDSVRTDLAGAQGYGIDLLFVTRGIHADAFEGIDRLDTAAVNELFGHPPLALTRELREGHHHHHH", "soluble on expression in E. coli": "soluble"}
{"sequence": "MSLEKYNAEVERDPFANRVFEQEEKRELTSEQRIAYENIKEKINNSEQRTFLLHGVTGSGKTEVYLQTIEEVLNKGKEAMMLVPEIALTPQMVLRFKRRFGDDVAVLHSGLSNGERYDEWQKIRDGRARVSVGARSSIFAPFKNLGIIIIDEEHESTYKQEDYPRYHARDIAEWRSQFHQCPLVLGSATPSLESYARTEKGVYQLLTLPTRVNQQALPSIDIVDMREELSAGNRSMFSNELREAIEDRLRKNEQIVLFLNRRGYASFMLCRDCGYVPQCPHCDISLTYHKSTDQLKCHYCGYHEVPPNKCPNCESSHIRQVGTGTQRVEEILQQEFEEARIIRMDVDTTSRKGAHEKLLNEFEEGKGDILLGTQMIAKGLDYPNITLVGVLNADTMLNLPDFRASERTYQLLTQVAGRAGRHDKPGRVIIQTYNPEHYAIQDVQKNDYLTFYQKEMEYRKIGKYPPYYFLINFTISHKNMKKVMEASKHIHQILLQHLTDRALVLGPSPAAIARINNEHRFQILVKYKSEPELLKALQYLDDYYHEAYLKNKLALKIDINPQILMEGHHHHHH", "soluble on expression in E. coli": "soluble"}
{"sequence": "MSLELKVSLDNITMTAYIKSKKYLAMKQLIETHLAITVQTAMTDMFRATTGDGIHVVLHMNYDKQKGQDRKARPFRLEFNPNKLRLVDSEIIDTIIPFLEDISISRADLAFDLFEVDCSEFVLEKKGRPTATKEFRSSTGTLETKYLGAPRSEKQVRLYNKKKEQLQNGTDKDKDFASQFKHWWRLEFQLRSRSIDEIFEVIDTIIFKPFNLKGLSIETQIYLTALIHDKNIWKKLHRNTRARYKKILETHQTSDTDYLGLLKDLLKHERPRLENQLAYYGGRIDKNSFQPFCEGHHHHHH", "soluble on expression in E. coli": "soluble"}
{"sequence": "MSLELPILPTSVIGSYPKPRWLLRMYKLRELGKIPEEDFKEAVRDASISVLREHERAGIDIPWDGEMGRSEMTEYFTSKIKGFKFYGPVRVWGNAYFNKAAAVDKLEYEEPLVLDEFLWVKENTTREIVKIPITGPYTIAEWSFNEYYPDKESFVMDLAEIINKELKVLEKHGAKFVQLDEPAMLNHPSEVPLAVDAINRAVKGIKMKVGLHVCYSNYNLLADYFDEIKVTQFALEFANRNFRDMDFLKKLSNKELGFGVVDVHNPRVESVEEIRQAIKKVFTYLEPEWVYINPDCGLKLLDRKIAYQKLVNMVQAVRGVRKELEKEGKTTIEFRTLKDIEGHHHHHH", "soluble on expression in E. coli": "soluble"}
